# Experimental data: patent US12338277
# Key:
# Assay in all cases: cell-based or functional assay
# [1] = target: HIV-1 Env of pseudovirus 191084 B7-19 (HIV-1)
# [2] = target: HIV-1 Env of pseudovirus 235-47 (HIV-1)
# [3] = target: HIV-1 Env of pseudovirus 263-8 (HIV-1)
# [4] = target: HIV-1 Env of pseudovirus 3817.v2.c59 (HIV-1)
# [5] = target: HIV-1 Env of pseudovirus 6480.v4.c25 (HIV-1)
# [6] = target: HIV-1 Env of pseudovirus AC10.0.29 (HIV-1)
# [7] = target: HIV-1 Env of pseudovirus BJOX028000.10.3 (HIV-1)
# [8] = target: HIV-1 Env of pseudovirus C1080.c03 (HIV-1)
# [9] = target: HIV-1 Env of pseudovirus CNE19 (HIV-1)
# [10] = target: HIV-1 Env of pseudovirus CNE5 (HIV-1)
# [11] = target: HIV-1 Env of pseudovirus CNE52 (HIV-1)
# [12] = target: HIV-1 Env of pseudovirus CNE8 (HIV-1)
# [13] = target: HIV-1 Env of pseudovirus Ce0393_C3 (HIV-1)
# [14] = target: HIV-1 Env of pseudovirus Ce1176_A3 (HIV-1)
# [15] = target: HIV-1 Env of pseudovirus Ce703010054_2A2 (HIV-1)
# [16] = target: HIV-1 Env of pseudovirus Du172.17 (HIV-1)
# [17] = target: HIV-1 Env of pseudovirus Du422.1 (HIV-1)
# [18] = target: HIV-1 Env of pseudovirus HIV-001428-2.42 (HIV-1)
# [19] = target: HIV-1 Env of pseudovirus PVO.4 (HIV-1)
# [20] = target: HIV-1 Env of pseudovirus Q259.d2.17 (HIV-1)
# [21] = target: HIV-1 Env of pseudovirus Q842.d12 (HIV-1)
# [22] = target: HIV-1 Env of pseudovirus QH0692.42 (HIV-1)
# [23] = target: HIV-1 Env of pseudovirus SC422661.8 (HIV-1)
# [24] = target: HIV-1 Env of pseudovirus WITO4160.33 (HIV-1)
# [25] = target: HIV-1 Env of pseudovirus ZM197M.PB7 (HIV-1)
# [26] = target: HIV-1 envelope of pseudovirus 1054_07_TC4_1499 (HIV-1)
# [27] = target: HIV-1 envelope of pseudovirus 3016.v5.c45 (HIV-1)
# [28] = target: HIV-1 envelope of pseudovirus 3103.v3.c10 (HIV-1)
# [29] = target: HIV-1 envelope of pseudovirus 3415.v1.c1 (HIV-1)
# [30] = target: HIV-1 envelope of pseudovirus 6535.3 (HIV-1)
# [31] = target: HIV-1 envelope of pseudovirus 6811.v7.c18 (HIV-1)
# [32] = target: HIV-1 envelope of pseudovirus 9004SS_A3_4 (HIV-1)
# [33] = target: HIV-1 envelope of pseudovirus A07412M1.vrc12 (HIV-1)
# [34] = target: HIV-1 envelope of pseudovirus BJOX009000.02.4 (HIV-1)
# [35] = target: HIV-1 envelope of pseudovirus C3347.c11 (HIV-1)
# [36] = target: HIV-1 envelope of pseudovirus C4118.c09 (HIV-1)
# [37] = target: HIV-1 envelope of pseudovirus CNE21 (HIV-1)
# [38] = target: HIV-1 envelope of pseudovirus CNE5 (HIV-1)
# [39] = target: HIV-1 envelope of pseudovirus Ce0393_C3 (HIV-1)
# [40] = target: HIV-1 envelope of pseudovirus Ce0682_E4 (HIV-1)
# [41] = target: HIV-1 envelope of pseudovirus Du172.17 (HIV-1)
# [42] = target: HIV-1 envelope of pseudovirus HIV-0013095-2.11 (HIV-1)
# [43] = target: HIV-1 envelope of pseudovirus HIV-16055-2.3 (HIV-1)
# [44] = target: HIV-1 envelope of pseudovirus Q23.17 (HIV-1)
# [45] = target: HIV-1 envelope of pseudovirus REJO4541.67 (HIV-1)
# [46] = target: HIV-1 envelope of pseudovirus T251-18 (HIV-1)
# [47] = target: HIV-1 envelope of pseudovirus T257-31 (HIV-1)
# [48] = target: HIV-1 envelope of pseudovirus T278-50 (HIV-1)
# [49] = target: HIV-1 envelope of pseudovirus X1193_c1 (HIV-1)
# [50] = target: HIV-1 envelope of pseudovirus X1254_c3 (HIV-1)
# [51] = target: HIV-1 envelope of pseudovirus ZM249M.PL1 (HIV-1)
# Sequence of 10-996 (antibody) (VH): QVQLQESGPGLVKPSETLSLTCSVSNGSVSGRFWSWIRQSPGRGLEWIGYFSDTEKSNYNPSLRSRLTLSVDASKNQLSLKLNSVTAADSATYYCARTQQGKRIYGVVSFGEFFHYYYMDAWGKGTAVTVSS
# Sequence of 10-996 (antibody) (VL): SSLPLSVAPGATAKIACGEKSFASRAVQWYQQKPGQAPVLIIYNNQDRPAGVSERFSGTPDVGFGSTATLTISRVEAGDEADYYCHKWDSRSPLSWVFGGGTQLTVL
substance,measurement,setting,value
10-996 (antibody),IC80 (TZM-bl neutralization),[1],0.144 µg/mL
same,IC80 (TZM-bl neutralization),[2],0.381 µg/mL
same,IC80 (TZM-bl neutralization),[3],> 50 µg/mL
same,IC80 (TZM-bl neutralization),[4],34.6 µg/mL
same,IC80 (TZM-bl neutralization),[5],0.049 µg/mL
same,IC80 (TZM-bl neutralization),[6],0.25 µg/mL
same,IC80 (TZM-bl neutralization),[7],> 50 µg/mL
same,IC80 (TZM-bl neutralization),[8],> 50 µg/mL
same,IC80 (TZM-bl neutralization),[9],> 50 µg/mL
same,IC80 (TZM-bl neutralization),[10],> 50 µg/mL
same,IC80 (TZM-bl neutralization),[11],43.8 µg/mL
same,IC80 (TZM-bl neutralization),[12],> 50 µg/mL
same,IC80 (TZM-bl neutralization),[13],> 50 µg/mL
same,IC80 (TZM-bl neutralization),[14],0.151 µg/mL
same,IC80 (TZM-bl neutralization),[15],> 50 µg/mL
same,IC80 (TZM-bl neutralization),[16],0.607 µg/mL
same,IC80 (TZM-bl neutralization),[17],0.215 µg/mL
same,IC80 (TZM-bl neutralization),[18],0.204 µg/mL
same,IC80 (TZM-bl neutralization),[19],0.952 µg/mL
same,IC80 (TZM-bl neutralization),[20],> 50 µg/mL
same,IC80 (TZM-bl neutralization),[21],> 50 µg/mL
same,IC80 (TZM-bl neutralization),[22],1.85 µg/mL
same,IC80 (TZM-bl neutralization),[23],0.627 µg/mL
same,IC80 (TZM-bl neutralization),[24],6.48 µg/mL
same,IC80 (TZM-bl neutralization),[25],> 50 µg/mL
same,IC50 (TZM-bl neutralization),[26],0.26 µg/mL
same,IC50 (TZM-bl neutralization),[27],> 50 µg/mL
same,IC50 (TZM-bl neutralization),[28],0.053 µg/mL
same,IC50 (TZM-bl neutralization),[29],35.9 µg/mL
same,IC50 (TZM-bl neutralization),[30],0.017 µg/mL
same,IC50 (TZM-bl neutralization),[31],0.001 µg/mL
same,IC50 (TZM-bl neutralization),[32],0.012 µg/mL
same,IC50 (TZM-bl neutralization),[33],0.008 µg/mL
same,IC50 (TZM-bl neutralization),[34],> 50 µg/mL
same,IC50 (TZM-bl neutralization),[35],> 50 µg/mL
same,IC50 (TZM-bl neutralization),[36],> 50 µg/mL
same,IC50 (TZM-bl neutralization),[37],0.086 µg/mL
same,IC50 (TZM-bl neutralization),[38],> 50 µg/mL
same,IC50 (TZM-bl neutralization),[39],> 50 µg/mL
same,IC50 (TZM-bl neutralization),[40],> 50 µg/mL
same,IC50 (TZM-bl neutralization),[41],0.173 µg/mL
same,IC50 (TZM-bl neutralization),[42],31.5 µg/mL
same,IC50 (TZM-bl neutralization),[43],> 50 µg/mL
same,IC50 (TZM-bl neutralization),[44],0.008 µg/mL
same,IC50 (TZM-bl neutralization),[45],> 50 µg/mL
same,IC50 (TZM-bl neutralization),[46],0.939 µg/mL
same,IC50 (TZM-bl neutralization),[47],> 50 µg/mL
same,IC50 (TZM-bl neutralization),[48],14 µg/mL
same,IC50 (TZM-bl neutralization),[49],0.144 µg/mL
same,IC50 (TZM-bl neutralization),[50],0.121 µg/mL
same,IC50 (TZM-bl neutralization),[51],> 50 µg/mL
